In the supplement of paper PMC9112550, “Optimization of the antimicrobial peptide Bac7 by deep mutational scanning” (BMC Biology, 2022):

Each sequence was assayed on Escherichia coli TOP10 (assay: shrunken log2 fold change of peptide-encoding DNA abundance (4.5 h post-induction vs induction); higher = less antimicrobial activity (less host growth inhibition)). Details: time post-induction: 4.5 h; library: site-saturation at positions 5, 18, 19, 20.
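Note: peptides expressed intracellularly from a pBAD plasmid library in pooled LB shake-flask culture, induced with 0.3% L-arabinose, DNA abundance read by NGS, three biological replicates, DESeq2 with apeglm shrinkage.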

Sequence | shrunken log2 fold change
RRIRQRPPRLPRPRPRPRDHPRP | 0.423
RRIRCRPPRLPRPRPRPADSPRP | -0.0251
RRIRKRPPRLPRPRPRPGWMPRP | 0.269
RRIRCRPPRLPRPRPRPVEVPRP | -0.0243
RRIRVRPPRLPRPRPRPHLRPRP | 0.248
RRIRQRPPRLPRPRPRPKVWPRP | 0.153
RRIRSRPPRLPRPRPRPLLLPRP | -0.0475
RRIRQRPPRLPRPRPRPKSVPRP | -0.0026
RRIRMRPPRLPRPRPRPANHPRP | 0.0312
RRIRIRPPRLPRPRPRPSVFPRP | -0.219
RRIRGRPPRLPRPRPRPQIRPRP | 0.808
RRIRIRPPRLPRPRPRPSYAPRP | -0.0605
RRIRMRPPRLPRPRPRPHIMPRP | -0.422
RRIRFRPPRLPRPRPRPVSFPRP | -0.414
RRIRWRPPRLPRPRPRPNCYPRP | -0.0773
RRIRFRPPRLPRPRPRPWWTPRP | 0.0245
RRIRKRPPRLPRPRPRPTKQPRP | -0.0553
RRIRARPPRLPRPRPRPTNHPRP | -0.181
RRIRSRPPRLPRPRPRPKAVPRP | 0.255
RRIRSRPPRLPRPRPRPILQPRP | 0.0824
RRIRMRPPRLPRPRPRPIGKPRP | 0.208
RRIRWRPPRLPRPRPRPCMKPRP | 0.00396
RRIRWRPPRLPRPRPRPVSFPRP | 0.169
RRIRYRPPRLPRPRPRPAFYPRP | -0.513
RRIRCRPPRLPRPRPRPTFKPRP | -0.148

Sequence | shrunken log2 fold change
RRIRWRPPRLPRPRPRPPDMPRP | 0.0014
RRIRQRPPRLPRPRPRPSHNPRP | 0.547
RRIRCRPPRLPRPRPRPTQNPRP | 0.803
RRIRRRPPRLPRPRPRPMPLPRP | 2.47
RRIRERPPRLPRPRPRPLAVPRP | -0.0594
RRIRQRPPRLPRPRPRPIPWPRP | 0.0351
RRIRHRPPRLPRPRPRPLSMPRP | -0.396
RRIRERPPRLPRPRPRPHQQPRP | 0.119
RRIRHRPPRLPRPRPRPDLIPRP | -0.0224
RRIRHRPPRLPRPRPRPNCPPRP | -0.152
RRIRFRPPRLPRPRPRPWFFPRP | -0.393
RRIRNRPPRLPRPRPRPDKNPRP | -0.226
RRIRMRPPRLPRPRPRPTEWPRP | 0.555
RRIRTRPPRLPRPRPRPYWKPRP | -0.000823
RRIRLRPPRLPRPRPRPLKMPRP | 1.29
RRIRRRPPRLPRPRPRPTVFPRP | 0.721
RRIRMRPPRLPRPRPRPMVRPRP | 0.0591
RRIRHRPPRLPRPRPRPKTLPRP | -0.984
RRIRERPPRLPRPRPRPGKIPRP | 0.139
RRIRNRPPRLPRPRPRPRIMPRP | -0.337
RRIRNRPPRLPRPRPRPMVQPRP | -0.0629
RRIRARPPRLPRPRPRPHHYPRP | -0.223
RRIRYRPPRLPRPRPRPYFNPRP | -1.33
RRIRKRPPRLPRPRPRPVATPRP | 0.635
RRIRWRPPRLPRPRPRPIYIPRP | -0.889

Sequence | shrunken log2 fold change
RRIRFRPPRLPRPRPRPHTCPRP | 0.00442
RRIRDRPPRLPRPRPRPNVSPRP | -0.00783
RRIRWRPPRLPRPRPRPMCPPRP | -0.232
RRIRLRPPRLPRPRPRPCMSPRP | 0.0623
RRIRIRPPRLPRPRPRPNQIPRP | -0.713
RRIRLRPPRLPRPRPRPSPAPRP | 0.254
RRIRFRPPRLPRPRPRPKKVPRP | 0.102
RRIRMRPPRLPRPRPRPCTCPRP | 0.0043
RRIRYRPPRLPRPRPRPQFCPRP | -0.0677
RRIRMRPPRLPRPRPRPANEPRP | 0.182
RRIRPRPPRLPRPRPRPIVEPRP | 0.233
RRIRPRPPRLPRPRPRPWQFPRP | 0.00677
RRIRERPPRLPRPRPRPNALPRP | -0.247
RRIRVRPPRLPRPRPRPALWPRP | 0.57
RRIRYRPPRLPRPRPRPCNMPRP | -0.873
RRIRVRPPRLPRPRPRPGHFPRP | 0.136
RRIRQRPPRLPRPRPRPTWCPRP | 0.171
RRIRRRPPRLPRPRPRPGTAPRP | 0.414
RRIRTRPPRLPRPRPRPVWRPRP | 0.302
RRIRSRPPRLPRPRPRPTGMPRP | 0.0395
RRIRYRPPRLPRPRPRPNPPPRP | 0.0395
RRIRRRPPRLPRPRPRPQWEPRP | -0.0504
RRIRLRPPRLPRPRPRPTEAPRP | -0.00104
RRIRFRPPRLPRPRPRPFADPRP | -0.0172
RRIRPRPPRLPRPRPRPRCLPRP | -0.0858

Sequence | shrunken log2 fold change
RRIRKRPPRLPRPRPRPGQDPRP | 0.37
RRIRWRPPRLPRPRPRPAPTPRP | 0.695
RRIRNRPPRLPRPRPRPFDIPRP | -0.701
RRIRLRPPRLPRPRPRPTGKPRP | -0.202
RRIRQRPPRLPRPRPRPRINPRP | -0.184
RRIRARPPRLPRPRPRPHIIPRP | -0.0334
RRIRARPPRLPRPRPRPNTPPRP | -0.00444
RRIRGRPPRLPRPRPRPYDWPRP | 0.0669
RRIRIRPPRLPRPRPRPPVIPRP | -0.108
RRIRVRPPRLPRPRPRPLCPPRP | -0.153
RRIRKRPPRLPRPRPRPNYWPRP | 0.157
RRIRFRPPRLPRPRPRPFDHPRP | -0.281
RRIRPRPPRLPRPRPRPWDPPRP | -0.0945
RRIRERPPRLPRPRPRPRKPPRP | -0.13
RRIRTRPPRLPRPRPRPMALPRP | -0.0542
RRIRIRPPRLPRPRPRPCKLPRP | -0.167
RRIRGRPPRLPRPRPRPNLRPRP | 0.283
RRIRYRPPRLPRPRPRPLNLPRP | -0.369
RRIRLRPPRLPRPRPRPGRIPRP | -0.136
RRIRPRPPRLPRPRPRPTFMPRP | 0.0861
RRIRHRPPRLPRPRPRPRGMPRP | 0.207
RRIRMRPPRLPRPRPRPASIPRP | -0.015
RRIRFRPPRLPRPRPRPIPGPRP | -0.00876
RRIRNRPPRLPRPRPRPSGEPRP | 0.155
RRIRFRPPRLPRPRPRPTECPRP | -0.0986

Sequence | shrunken log2 fold change
RRIRTRPPRLPRPRPRPGEGPRP | 0.177
RRIRVRPPRLPRPRPRPYRGPRP | -0.402
RRIRDRPPRLPRPRPRPRDTPRP | 0.575
RRIRSRPPRLPRPRPRPEECPRP | 0.251
RRIRSRPPRLPRPRPRPWHCPRP | -0.403
RRIRMRPPRLPRPRPRPEYVPRP | 0.16
RRIRMRPPRLPRPRPRPHASPRP | 0.116
RRIRERPPRLPRPRPRPTMRPRP | 0.732
RRIRWRPPRLPRPRPRPYISPRP | -0.816
RRIRLRPPRLPRPRPRPGFSPRP | -0.161
RRIRHRPPRLPRPRPRPMVHPRP | 0.00748
RRIRGRPPRLPRPRPRPSHAPRP | 0.423
RRIRVRPPRLPRPRPRPFIGPRP | -0.291
RRIRHRPPRLPRPRPRPPWFPRP | -0.27
RRIRHRPPRLPRPRPRPETEPRP | 0.105
RRIRHRPPRLPRPRPRPQVCPRP | -0.0115
RRIRARPPRLPRPRPRPFKPPRP | -0.0739
RRIRHRPPRLPRPRPRPCGNPRP | -0.196
RRIRYRPPRLPRPRPRPAQVPRP | -0.0734
RRIRDRPPRLPRPRPRPEQKPRP | 0.0533
RRIRCRPPRLPRPRPRPNIDPRP | -0.539
RRIRYRPPRLPRPRPRPYWMPRP | -0.686
RRIRNRPPRLPRPRPRPDKKPRP | -0.0263
RRIRCRPPRLPRPRPRPVFMPRP | -0.359
RRIRERPPRLPRPRPRPMTIPRP | -0.155

Sequence | shrunken log2 fold change
RRIRTRPPRLPRPRPRPMGSPRP | -0.0908
RRIRHRPPRLPRPRPRPKVNPRP | -0.181
RRIRKRPPRLPRPRPRPACHPRP | 0.211
RRIRMRPPRLPRPRPRPQMYPRP | -0.24
RRIRYRPPRLPRPRPRPMRAPRP | 0.605
RRIRSRPPRLPRPRPRPWMKPRP | -0.00765
RRIRVRPPRLPRPRPRPEKFPRP | -0.208
RRIRARPPRLPRPRPRPQTMPRP | 0.108
RRIRRRPPRLPRPRPRPPPMPRP | 0.959
RRIRDRPPRLPRPRPRPDKAPRP | -0.00804
RRIRQRPPRLPRPRPRPVENPRP | -0.0501
RRIRFRPPRLPRPRPRPRMYPRP | -0.151
RRIRARPPRLPRPRPRPWMNPRP | -0.121
RRIRFRPPRLPRPRPRPVDGPRP | 0.148
RRIRYRPPRLPRPRPRPRTGPRP | -0.0225
RRIRNRPPRLPRPRPRPMKNPRP | -0.238
RRIRCRPPRLPRPRPRPKGRPRP | -0.00803
RRIRKRPPRLPRPRPRPSEHPRP | -0.183
RRIRARPPRLPRPRPRPLMHPRP | 0.446
RRIRRRPPRLPRPRPRPKGGPRP | 0.183
RRIRERPPRLPRPRPRPHRPPRP | -0.123
RRIRYRPPRLPRPRPRPRWLPRP | -0.109
RRIRHRPPRLPRPRPRPRVHPRP | 0.0785
RRIRDRPPRLPRPRPRPPLLPRP | 0.252
RRIRVRPPRLPRPRPRPQWLPRP | 0.188
